Results on eight substances are retold here after PMC11068555.

By stoichiometry N is commonly meant the number of molecules, sites or subunits per partner or assembly.

Holding throughout (experiment): native gel or EMSA
For orientation: In EMSA bound probe runs differently from free probe, usually more slowly.

The target of assay [1] is Btky72 S Foldon his (sarbecovirus BtKY72 (clade 3) | bacteriophage T4).
In assay [2] the target is Khosta-2 S Foldon his (prefusion stabilized spike ectodomain) (sarbecovirus Khosta-2 (clade 3) | bacteriophage T4).
Assay [3] deals with PRD-0038 S Foldon his (prefusion stabilized spike ectodomain) (sarbecovirus PRD-0038 (clade 3) | bacteriophage T4).
Assay [4] has as its target Pang17 S Foldon his (prefusion stabilized spike ectodomain) (sarbecovirus Pang17 (clade 1b) | bacteriophage T4).
In assay [5] the target is Rf1 S Foldon his (prefusion stabilized spike ectodomain) (sarbecovirus Rf1 (clade 2) | bacteriophage T4).
The target of assay [6] is Rs4081 S Foldon his (prefusion stabilized spike ectodomain) (sarbecovirus Rs4081 (clade 2) | bacteriophage T4).
In assay [7] the target is RshSTT200 S Foldon his (prefusion stabilized spike ectodomain) (sarbecovirus RshSTT200 (clade 1b) | bacteriophage T4).
Assay [8] addresses SARS-CoV S Foldon his (prefusion stabilized spike ectodomain) (SARS-CoV (clade 1a) | bacteriophage T4).

The substance “Btky72 S Foldon his (domain or fragment)” returned a stoichiometry N in assay [1] of 3.

In assay [2], “Khosta-2 S Foldon his (prefusion stabilized spike ectodomain) (domain or fragment)” registered a stoichiometry N of 3.

With “PRD-0038 S Foldon his (prefusion stabilized spike ectodomain) (domain or fragment)”, the stoichiometry N in assay [3] was 3.

With “Pang17 S Foldon his (prefusion stabilized spike ectodomain) (domain or fragment)”, the stoichiometry N in assay [4] stood at 3.

In turn, “Rf1 S Foldon his (prefusion stabilized spike ectodomain) (domain or fragment)” registered a stoichiometry N in assay [5] of 3.

In turn, “Rs4081 S Foldon his (prefusion stabilized spike ectodomain) (domain or fragment)” gave a stoichiometry N in assay [6] of 3.

The substance “RshSTT200 S Foldon his (prefusion stabilized spike ectodomain) (domain or fragment)” registered a stoichiometry N in assay [7] of 3.

As for “SARS-CoV S Foldon his (prefusion stabilized spike ectodomain) (domain or fragment)”, in assay [8], the stoichiometry N was 3.
